# Data reported in publication PMC9435597, “Medical contrast agents as promising tools for biomacromolecular SAXS experiments” (Acta Crystallographica. Section D, Structural Biology, 2022).
# Molecular target: the molecule itself
# Assay: SAXS; P1 in solution, 20 mM Tris pH 7.5, 150 mM NaCl, 15°C, flow mode, SWING beamline; contrast series with Gd-HPDO3A (up to 1341 mM) or iohexol (up to 618 mM); CRYSOL fits with a hexameric atomic model, linearity of I(0)^1/2, Rg
protein,measurement,value
"protease 1 from Pyrococcus horikoshii (enzyme, protease 1 (P1) from Pyrococcus horikoshii; Hexamer; also called P1; source: purified following existing protocols (Engilberge et al., 2017)) MKVLFLTANEFEDVELIYPYHRLKEEGHEVYIASFERGTITGKHGYSVKVDLTFDKVNPEEFDALVLPGGRAPERVRLNEKAVSIARKMFSEGKPVASICHGPQILISAGVLRGRKGTSYPGIKDDMINAGVEWVDAEVVVDGNWVSSRVPADLYAWMREFVKLLK",stoichiometry N,6
